System: K4 kissing-loop RNA reporter
Assay: apparent KD of K4 kissing-loop reporter; higher = weaker reporter binding
Settings: Eterna round: R107
Protocol: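 RNA-MaP round R107: designed RNA switches with theophylline, tryptophan, arginine or FMN aptamers are transcribed on-chip within common flanks. They are titrated with a labelled K4 kissing-loop RNA reporter in RNA-MaP buffer (100 mM Tris pH 7.5, 80 mM KCl, 4 mM MgCl2), without ligand or with the indicated ligand. Median apparent KD per design.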

[1] = input ligand: theophylline 20 uM
[2] = input ligand: tryptophan 2.4 mM
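Also: bound reporter read as fluorescence of individual clusters on recovered sequencing chips by microscopy, with normalized cluster intensities fitted with a binding model.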

Sequence	apparent KD of K4 kissing-loop reporter (input ligand: FMN 200 uM) [nM]	apparent KD of K4 kissing-loop reporter (input ligand: arginine 13.2 mM) [nM]	apparent KD of K4 kissing-loop reporter (input ligand: none) [nM]	apparent KD of K4 kissing-loop reporter [1] [nM]	apparent KD of K4 kissing-loop reporter [2] [nM]
CGGAGUGAUGUUCCGUUAAUUAAUUAUUUACGAGGACCGGUACGGCCGCCACUCGAUUUUGCUUUUAUUUAAUGUUUGGAAAUUU [JR_SSTryptoA_Sub006]	135	143	142	146	101
CGGAUGUAGUGAUGUUAUAUAAGAAGUAGACGAGGACCGGUACGGCCGCCACUCGAAACGGCUACUAGCGCGUUGCGAGGUGUGC [ExTryptoA.Ch]	651	681	549	688	500
CGGUACGUCGCAGGAUAUGGAUUCUGGAGUGAUGUUUCAGAGGCAUGCGGAAAACGCAUGCCGACUCCAGAAGGGCGACGUACCG	752	85.8	276	24	376
CGUCGGUAGUGAUGUUGCCACGACGCUUUUAAGGAUAUAAGCUAAGUUAGAAGGUAAGAGAGUCAGCCCGGUGGCCUUAGAGUAG [theeternabot_exclusion_KL_FMN_A_17]	257	186	195	162	151
CGUGCCCAGCCGGAUACCAGUGACCCGCUGGGAACCGCGGGCCCAGAGUGAUGUUCGGGACACCCUUGGCAGCCGCCUGGGCGGC [#2 Same State - Theophylline B Attempt #12 (HarryS)]	1380	724	462	440	1250
CUAGCCGGGAAAGGAUAUACACACGCACAUAACGAGUGAUGUUCGUUAAUACCAACUUGGUUAACUGUAGAAGGUUCAUCGUCAC [theeternabot_sameState_KL_FMN_B_36]	579	576	803	793	517
CUAUGGAAACAUAGUGAGCGGGAAACCGAUACCAGUAUGGAAACAUACCCUUGGCAGCGGAAUGCUCAAACGGAGUGAUGUUCCG [Theophylline A K4 22]	265	216	270	235	240
CUGGGUUGACGAAAAGUCAACAAAUGAGAAGGAGCGCACGAAAGUGCAGGUAGGUCGCUCAAUCCAGUGAUGUUGGAUCAUCCAG [#SwitchBubble 12 #K4Late]	571	601	649	638	472
CUGUACAUCUCGGCCGCCACUGACAUGAGUGAUGUUCAUGUACAUGAGUGAUGUUCAUGUUCGGCCAGGACCGGGAGGUGUGCAG [KL-SSTryp-B2 #analogue #double KL]	352	184	274	271	216
CUUGAUGUGUCGGCCGCCACUGGUAUAGGCGGACUAUAACGACAUGAGUGAUGUUCAUGUUCGUCUAGGACCGGGACACAUUGUA [Tryp B SS t4]	112	97.4	104	100	111
GAAUUAUGUAGAAGGAGCGUUAGAAGGUAUAGGUGCGAGUGAUGUUUGGAUUUGUUAAUUUGACAGGUAGGUCGCUACAGAAGGA [KL-SSArg B18 #analogue]	946	259	567	205	306
GAAUUGACGAGUGAUGUUCGUCCACAAUACCGAGGACCGGUACGGCCGCCACUCGAGCAAUGUGAAUAGGGUCGCGUUUUGCAGU	294	266	295	352	187
GACGGGUUGCUGCUCAAUCCGUCGCAUGAUCGAGGACCGGUACGGCCGCCACUCGAGGCCAUGCCGUACGAGUGAUGUUCGUGCG [Xeerlaus]	387	327	324	388	190
GACUGGAGUGAUGUUCCAUUAACGAUCCUACGAGGACCGGUACGGCCGCCACUCGAAAUGCAGUGAUGUUGCAGCCAGCCGUACU [Exclusion Trptophan A GF 8]	157	180	162	192	142
GAGAGCCCUGGAGGAUAUGAGUCUAGUGAUGUUAGGCGGUCCAUGCGCGUGGCGCGUUAUGCCCUUUUAGAAGGCCAGGGCUCUC [#2 Exclusion - FMN B Attempt #18 (HarryS)]	109	68.5	88.5	85.2	89.7
GAGAUAGAGGCGGCCGCCACUAGUGAUGUUAGUGAUGUUAGAUAGAGAAUAUAACAGGGAUUAGAUAGGACCGGGCCAGAUGGAG ['lljullin]	116	104	130	103	100
GAGCGGUAGAGGCUACCGCUAUUCUGAGAAGGAGCGCAGAUGACUGCAGGUAGGUCGCUUAGAGCUUGCAGUGAUGUUGCAAGUU [Inzarier]	178	176	191	181	181
GAGGGCCCUGUAGGAUAUGAGUCUAGUGAUGUUAGGCGGUCCAUGCGCGUGGCGCGUUAUGCCCUUUUAGAAGGACAGGGCUCUC [#2 Exclusion - FMN B Attempt #21 (HarryS)]	109	63	82.4	83.3	84.7
GAUAGGAAACUAUCAAAUCGGGAAACCGAUACCAGUAUGGAUUCAUACCCUUGGCAGCGGGAUUAUAAAAUAGGAGUGAUGUUCC [Theophylline A K4 16]	219	213	220	241	189
GAUGAUCGCGCGGCCGCCACUGGUCAGUGAUGUUGACAUUAAUGCGCCGAGUAGUAACGGCGCAGUAGGACCGGGCGCGAUGUAG [#13 K4 Tryptophan B Same State]	151	139	139	198	110
GAUGGUCGAGAAGGAUAUGUGACUACCAGAAGGAAAUUCAGUGAUGUUGAUUGUCGCGAGCAGGAGACAGAAGGUCUCAGACAUA [theeternabot_exclusion_KL_FMN_B_5]	506	265	330	351	276

— the supplement of paper PMC9170038
